The text below walks through data of the supplement of paper PMC5998384.

Series [1] concerns HeLa Kyoto. Description: solubility in G1/S (NP-40 vs SDS abundance) (log2 ratio); higher = more soluble. As to conditions: cell cycle stage: G1/S.
Series [2] has as its system HeLa Kyoto. Description: melting temperature (median over replicates), in situ; higher = more thermally stable.
Series [3] has as its system HeLa Kyoto. Briefly: solubility change mitosis vs G1/S (difference of NP-40 vs SDS log2 ratios) (log2 ratio difference); higher = more soluble in mitosis.
Series [4] concerns HeLa Kyoto. Briefly: thermal stability score vs G1/S (z-score of summed log2 fold changes over temperatures); higher = more thermally stable than in G1/S.
Where [5] appears, read: cell cycle stage: early G1 (4.5 h after nocodazole release).
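For melting temperature (median over replicates), in situ in this document: HeLa Kyoto cells synchronized by double thymidine or nocodazole block, proteins quantified by TMT10plex mass spectrometry, three independent biological replicates.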
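For solubility change mitosis vs G1/S (difference of NP-40 vs SDS log2 ratios) in this document: synchronized HeLa Kyoto cells (double thymidine block for G1/S, nocodazole release for mitosis), protein amounts in NP-40 versus SDS lysates quantified by mass spectrometry, three biological replicates.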
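For solubility in G1/S (NP-40 vs SDS abundance) in this document: HeLa Kyoto cells arrested at G1/S by double thymidine block, proteins quantified by TMT10plex mass spectrometry in mild NP-40 versus SDS extracts, three biological replicates.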
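For thermal stability score vs G1/S (z-score of summed log2 fold changes over temperatures) in this document: synchronized HeLa Kyoto cells, proteins quantified by TMT10plex mass spectrometry, three biological replicates, mitosis taken 0.5 h after nocodazole release, G1/S directly after double thymidine block.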

Take “MGPGPSRAPRAPRLMLCALALMVAAGGCVVSAFNLDTRFLVVKEAGNPGSLFGYSVALHRQTERQQRYLLLAGAPRELAVPDGYTNRTGAVYLCPLTAHKDDCERMNITVKNDPGHHIIEDMWLGVTVASQGPAGRVLVCAHRYTQVLWSGSEDQRRMVGKCYVRGNDLELDSSDDWQTYHNEMCNSNTDYLETGMCQLGTSGGFTQNTVYFGAPGAYNWKGNSYMIQRKEWDLSEYSYKDPEDQGNLYIGYTMQVGSFILHPKNITIVTGAPRHRHMGAVFLLSQEAGGDLRRRQVLEGSQVGAYFGSAIALADLNNDGWQDLLVGAPYYFERKEEVGGAIYVFMNQAGTSFPAHPSLLLHGPSGSAFGLSVASIGDINQDGFQDIAVGAPFEGLGKVYIYHSSSKGLLRQPQQVIHGEKLGLPGLATFGYSLSGQMDVDENFYPDLLVGSLSDHIVLLRARPVINIVHKTLVPRPAVLDPALCTATSCVQVELCFAYNQSAGNPNYRRNITLAYTLEADRDRRPPRLRFAGSESAVFHGFFSMPEMRCQKLELLLMDNLRDKLRPIIISMNYSLPLRMPDRPRLGLRSLDAYPILNQAQALENHTEVQFQKECGPDNKCESNLQMRAAFVSEQQQKLSRLQYSRDVRKLLLSINVTNTRTSERSGEDAHEALLTLVVPPALLLSSVRPPGACQANETIFCELGNPFKRNQRMELLIAFEVIGVTLHTRDLQVQLQLSTSSHQDNLWPMILTLLVDYTLQTSLSMVNHRLQSFFGGTVMGESGMKTVEDVGSPLKYEFQVGPMGEGLVGLGTLVLGLEWPYEVSNGKWLLYPTEITVHGNGSWPCRPPGDLINPLNLTLSDPGDRPSSPQRRRRQLDPGGGQGPPPVTLAAAKKAKSETVLTCATGRAHCVWLECPIPDAPVVTNVTVKARVWNSTFIEDYRDFDRVRVNGWATLFLRTSIPTINMENKTTWFSVDIDSELVEELPAEIELWLVLVAVGAGLLLLGLIILLLWKCGFFKRARTRALYEAKRQKAEMKSQPSETERLTDDY [ITGA3]”: the “solubility in G1/S (log2)” value in the series with HeLa Kyoto [1] stood at 0.0349. Moreover, the figures for the melting temperature with HeLa Kyoto [2] (cell cycle stage: G1/S) and in the series on HeLa Kyoto [2] (cell cycle stage: mitosis) were 56.8 °C and 59.2 °C, respectively. Moreover, in the series on HeLa Kyoto [3], the “solubility change mitosis (log2)” value was found to be 0.0722. Also, the thermal stability score in the series on HeLa Kyoto [4] (setting [5]) was -0.693; with HeLa Kyoto [4] (cell cycle stage: mitosis), -1.42.
For “MGRDTRSRSRSAGRRGRRRQSQSGSRSRSRSHGRRNRRRREDEGRRRRRRRSRERRSDSEEERWQRSGMRSRSPPRPKWHSRDGSSQSDSGEEQSRGQWARRRRRARSWSPSSSASSSASPGRSQSPRAAAAALSQQQSLQERLRLREERKQQEELMKAFETPEEKRARRLAKKEAKERKKREKMGWGEEYMGYTNTDNPFGDNNLLGTFIWNKALEKKGISHLEEKELKERNKRIQEDNRLELQKVKQLRLEREREKAMREQELEMLQREKEAEHFKTWEEQEDNFHLQQAKLRSKIRIRDGRAKPIDLLAKYISAEDDDLAVEMHEPYTFLNGLTVADMEDLLEDIQVYMELEQGKNADFWRDMTTITEDEISKLRKLEASGKGPGERREGVNASVSSDVQSVFKGKTYNQLQVIFQGIEGKIRAGGPNLDMGYWESLLQQLRAHMARARLRERHQDVLRQKLYKLKQEQGVESEPLFPILKQEPQSPSRSLEPEDAAPTPPGPSSEGGPAEAEVDGATPTEGDGDGDGEGEGEGEAVLMEEDLIQQSLDDYDAGRYSPRLLTAHELPLDAHVLEPDEDLQRLQLSRQQLQVTGDASESAEDIFFRRAKEGMGQDEAQFSVEMPLTGKAYLWADKYRPRKPRFFNRVHTGFEWNKYNQTHYDFDNPPPKIVQGYKFNIFYPDLIDKRSTPEYFLEACADNKDFAILRFHAGPPYEDIAFKIVNREWEYSHRHGFRCQFANGIFQLWFHFKRYRYRR [CACTIN]”, the “solubility in G1/S (log2)” value with HeLa Kyoto [1] is -0.924. The melting temperature in the series on HeLa Kyoto [2] (cell cycle stage: G1/S) amounted to 47.9 °C; with HeLa Kyoto [2] (cell cycle stage: mitosis), 50.4 °C. Besides, the “solubility change mitosis (log2)” value in the series with HeLa Kyoto [3] was 0.985. For the same sequence, the thermal stability score amounted to 0.527 in the series on HeLa Kyoto [4] (setting [5]) and 0.928 in the series on HeLa Kyoto [4] (cell cycle stage: mitosis).
Consider “MGRGWGFLFGLLGAVWLLSSGHGEEQPPETAAQRCFCQVSGYLDDCTCDVETIDRFNNYRLFPRLQKLLESDYFRYYKVNLKRPCPFWNDISQCGRRDCAVKPCQSDEVPDGIKSASYKYSEEANNLIEECEQAERLGAVDESLSEETQKAVLQWTKHDDSSDNFCEADDIQSPEAEYVDLLLNPERYTGYKGPDAWKIWNVIYEENCFKPQTIKRPLNPLASGQGTSEENTFYSWLEGLCVEKRAFYRLISGLHASINVHLSARYLLQETWLEKKWGHNITEFQQRFDGILTEGEGPRRLKNLYFLYLIELRALSKVLPFFERPDFQLFTGNKIQDEENKMLLLEILHEIKSFPLHFDENSFFAGDKKEAHKLKEDFRLHFRNISRIMDCVGCFKCRLWGKLQTQGLGTALKILFSEKLIANMPESGPSYEFHLTRQEIVSLFNAFGRISTSVKELENFRNLLQNIH [ERO1A]”, for which the “solubility in G1/S (log2)” value in the series with HeLa Kyoto [1] came to 0.338. For the same sequence, the melting temperature stood at 54.2 °C in the series on HeLa Kyoto [2] (cell cycle stage: G1/S) and 54.6 °C with HeLa Kyoto [2] (cell cycle stage: mitosis). Besides, the “solubility change mitosis (log2)” value in the series with HeLa Kyoto [3] was -0.161. For the same sequence, the figures for the thermal stability score in the series with HeLa Kyoto [4] (setting [5]) and in the series on HeLa Kyoto [4] (cell cycle stage: mitosis) were 5.02 and 7.63, respectively.
As for “MGRKLDPTKEKRGPGRKARKQKGAETELVRFLPAVSDENSKRLSSRARKRAAKRRLGSVEAPKTNKSPEAKPLPGKLPKGISAGAVQTAGKKGPQSLFNAPRGKKRPAPGSDEEEEEEDSEEDGMVNHGDLWGSEDDADTVDDYGADSNSEDEEEGEALLPIERAARKQKAREAAAGIQWSEEETEDEEEEKEVTPESGPPKVEEADGGLQINVDEEPFVLPPAGEMEQDAQAPDLQRVHKRIQDIVGILRDFGAQREEGRSRSEYLNRLKKDLAIYYSYGDFLLGKLMDLFPLSELVEFLEANEVPRPVTLRTNTLKTRRRDLAQALINRGVNLDPLGKWSKTGLVVYDSSVPIGATPEYLAGHYMLQGASSMLPVMALAPQEHERILDMCCAPGGKTSYMAQLMKNTGVILANDANAERLKSVVGNLHRLGVTNTIISHYDGRQFPKVVGGFDRVLLDAPCSGTGVISKDPAVKTNKDEKDILRCAHLQKELLLSAIDSVNATSKTGGYLVYCTCSITVEENEWVVDYALKKRNVRLVPTGLDFGQEGFTRFRERRFHPSLRSTRRFYPHTHNMDGFFIAKFKKFSNSIPQSQTGNSETATPTNVDLPQVIPKSENSSQPAKKAKGAAKTKQQLQKQQHPKKASFQKLNGISKGADSELSTVPSVTKTQASSSFQDSSQPAGKAEGIREPKVTGKLKQRSPKLQSSKKVAFLRQNAPPKGTDTQTPAVLSPSKTQATLKPKDHHQPLGRAKGVEKQQLPEQPFEKAAFQKQNDTPKGPQPPTVSPIRSSRPPPAKRKKSQSRGNSQLLLS [NOP2]”, the “solubility in G1/S (log2)” value in the series with HeLa Kyoto [1] was -2.12. Moreover, the melting temperature in the series on HeLa Kyoto [2] (cell cycle stage: G1/S) was 55.4 °C; in the series with HeLa Kyoto [2] (cell cycle stage: mitosis) it was 53.9 °C. Moreover, the “solubility change mitosis (log2)” value in the series on HeLa Kyoto [3] amounted to 0.976. Further, the thermal stability score in the series on HeLa Kyoto [4] (setting [5]) is -0.377; in the series on HeLa Kyoto [4] (cell cycle stage: mitosis) it was -6.17.
